From paper PMC7941734 (Cell reports, 2021)

Biological target: His6-tagged ASF1A S166E (recombinant) (human, UniProt Q9Y294 1-204, S166E)
Assay: pull-down

His6-tagged ASF1A S166E (recombinant), sequence (Q9Y294 whole entry S166E): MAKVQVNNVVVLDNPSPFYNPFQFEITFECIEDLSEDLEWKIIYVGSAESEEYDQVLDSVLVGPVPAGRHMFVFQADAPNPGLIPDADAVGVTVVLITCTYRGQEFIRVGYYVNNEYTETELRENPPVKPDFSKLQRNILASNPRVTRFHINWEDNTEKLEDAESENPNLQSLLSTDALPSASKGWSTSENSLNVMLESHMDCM

binding result: binds
B1: GST-tagged FHA domain of MDC1 (aa 1–158) (domain or fragment, human, UniProt Q14676 1-158, looked up)
chain: MEDTQAIDWDVEEEEETEQSSESLRCNVEPVGRLHIFSGAHGPEKDFPLHLGKNVVGRMPDCSVALPFPSISKQHAEIEILAWDKAPILRDCGSLNGTQILRPPKVLSPGVSHRLRDQELILFADLLCQYHRLDVSLPFVSRGPLTVEETPRVQGETQ
